Publication PMC9330781, “Isolated Variable Domains of an Antibody Can Assemble on Blood Coagulation Factor VIII into a Functional Fv-like Complex” (International Journal of Molecular Sciences, 2022)

B1: scFv iKM33-v1 (thrombin-cleavable variant of iKM33) (scFv, V domains shown)
VH: EVQLVESGGGVVQPGRSLRLSCVDSGLTFSSYGMHWVRQAPGAGLEWVAVISYDGNDKYYADSVKGRFAISRDNAKNTLYLQMNSLTIEDTAVYYCAKDLIESNIAEAFWGQGTLVTVSS
VL: DIQMTQSPSSLSASVGDTVTIACRASRDIRNDLAWYQQKPGKAPKLLIYATSRLQSGVPSRFSGSGSFTDFTLTINSLQPDDSATYYCLQDSDYPLTFGGGTKVDIK
notes: as the VH of m1; linker with a thrombin cleavage site made after the FVIII Arg740 site, 15 or 17 residues long; as the VL of m1; Differs from m1 only in the linker; also called intact scFv; source: Sf9 cells, baculovirus, purified from conditioned media (HisTrap Excel, Superdex 75)
B2: scFv iKM33-v3 (thrombin-cleavable variant of iKM33) (scFv, V domains shown)
VH: B1 VH
VL: B1 VL
notes: as the VH of m1; linker with a thrombin cleavage site made after the FVIII Arg372 site; as the VL of m1; Differs from m1 only in the linker; source: Sf9 cells, baculovirus, purified from conditioned media (HisTrap Excel, Superdex 75)
B3: scFv iKM33-v2 (thrombin-cleavable variant of iKM33) (scFv, V domains shown)
VH: B1 VH
VL: B1 VL
notes: as the VH of m1; linker with a thrombin cleavage site made after the FVIII Arg740 site, 15 or 17 residues long; as the VL of m1; Differs from m1 only in the linker; also called non-cleaved scFv; source: Sf9 cells, baculovirus, purified from conditioned media (HisTrap Excel, Superdex 75)
B4: Recombinant B-domain deleted FVIII (BDD) (natural protein, human, UniProt P00451 20-2351, looked up)
chain 1: ATRRYYLGAVELSWDYMQSDLGELPVDARFPPRVPKSFPFNTSVVYKKTLFVEFTDHLFNIAKPRPPWMGLLGPTIQAEVYDTVVITLKNMASHPVSLHAVGVSYWKASEGAEYDDQTSQREKEDDKVFPGGSHTYVWQVLKENGPMASDPLCLTYSYLSHVDLVKDLNSGLIGALLVCREGSLAKEKTQTLHKFILLFAVFDEGKSWHSETKNSLMQDRDAASARAWPKMHTVNGYVNRSLPGLIGCHRKSVYWHVIGMGTTPEVHSIFLEGHTFLVRNHRQASLEISPITFLTAQTLLMDLGQFLLFCHISSHQHDGMEAYVKVDSCPEEPQLRMKNNEEAEDYDDDLTDSEMDVVRFDDDNSPSFIQIRSVAKKHPKTWVHYIAAEEEDWDYAPLVLAPDDRSYKSQYLNNGPQRIGRKYKKVRFMAYTDETFKTREAIQHESGILGPLLYGEVGDTLLIIFKNQASRPYNIYPHGITDVRPLYSRRLPKGVKHLKDFPILPGEIFKYKWTVTVEDGPTKSDPRCLTRYYSSFVNMERDLASGLIGPLLICYKESVDQRGNQIMSDKRNVILFSVFDENRSWYLTENIQRFLPNPAGVQLEDPEFQASNIMHSINGYVFDSLQLSVCLHEVAYWYILSIGAQTDFLSVFFSGYTFKHKMVYEDTLTLFPFSGETVFMSMENPGLWILGCHNSDFRNRGMTALLKVSSCDKNTGDYYEDSYEDISAYLLSKNNAIEPR
chain 2: EITRTTLQSDQEEIDYDDTISVEMKKEDFDIYDEDENQSPRSFQKKTRHYFIAAVERLWDYGMSSSPHVLRNRAQSGSVPQFKKVVFQEFTDGSFTQPLYRGELNEHLGLLGPYIRAEVEDNIMVTFRNQASRPYSFYSSLISYEEDQRQGAEPRKNFVKPNETKTYFWKVQHHMAPTKDEFDCKAWAYFSDVDLEKDVHSGLIGPLLVCHTNTLNPAHGRQVTVQEFALFFTIFDETKSWYFTENMERNCRAPCNIQMEDPTFKENYRFHAINGYIMDTLPGLVMAQDQRIRWYLLSMGSNENIHSIHFSGHVFTVRKKEEYKMALYNLYPGVFETVEMLPSKAGIWRVECLIGEHLHAGMSTLFLVYSNKCQTPLGMASGHIRDFQITASGQYGQWAPKLARLHYSGSINAWSTKEPFSWIKVDLLAPMIIHGIKTQGARQKFSSLYISQFIIMYSLDGKKWQTYRGNSTGTLMVFFGNVDSSGIKHNIFNPPIIARYIRLHPTHYSIRSTLRMELMGCDLNSCSMPLGMESKAISDAQITASSYFTNMFATWSPSKARLHLQGRSNAWRPQVNNPKEWLQVDFQKTMKVTGVTTQGVKSLLTSMYVKEFLISSSQDGHQWTLFFQNGKVKVFQGNQDSFTPVVNSLDPPLLTRYLRIHPQSWVHQIALRMEVLGCEAQDLY
notes: coagulation factor VIII, human, B-domain deleted; also called BDD FVIII; source: bought: FVIII pharmaceutical product, ASD Healthcare, AmerisourceBergen

Key:
Settings in all cases: both partners purified
[1] = biological target: T1, Recombinant blood coagulation factor VIII (human); test: SPR; each scFv variant covalently immobilised (amine coupling, CM5, 250-350 RU); FVIII injected at 3.125, 12.5, 50 and 200 nM; 10 mM HEPES, 150 mM NaCl, 5 mM CaCl2, 0.005% Polysorbate-20; 25 °C; 1:1 (Langmuir) binding model; Biacore T200
T1 construct: coagulation factor VIII, human, heavy chain with the domain structure A1-A2-B; coagulation factor VIII, human, light chain with the domain structure A3-C1-C2; Written here as one chain entry with two parts would be wrong: see the two pieces as heavy chain and light chain of the heterodimer; also called FVIII; source: bought: FVIII pharmaceutical product, ASD Healthcare, AmerisourceBergen

[2] = biological target: B4; test: pull-down; FVIII (BDD, ~2 µg) incubated with the scFv or its fragments (1- to 5-fold molar excess) in HBS-P/Ca buffer for 1 h at room temperature, captured on VIIISelect (FVIII-affinity) resin, washed, eluted, SDS-PAGE with silver staining
[3] = biological target: T2, Isolated VH subunit of thrombin-cleaved iKM33-v1; test: as above
T2 construct: as the VH of m2; the stretch of the linker of m2 that stays on VH after thrombin cleavage; About 13 kDa; source: thrombin cleavage of the purified scFv (Sf9); supernatant after Ni-NTA agarose, buffer exchanged and concentrated

B1: binds [1]; binds [2].

B2: binds [1].

B3: binds [1].

B4: binds [3].
